Data on 94 variants can be found in the supplement of paper PMC10567573.

The labels stand for the following.
B1: RHOBTB2 (parent)
chain: LYTGELDENERDLMHIAHIAELLE
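Note: lentivirally expressed fusions sorted by FACS into six bins by GFP to DsRed ratio, PSI derived from sequencing read proportions per bin multiplied by bin number.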

The variants in the data set derive from B1. Kind of data set: protein stability index of a GFP-peptide fusion (GPS, HEK-293T) (PSI 1-6); higher = more stable. To be noted: c terminus: a fixed tail appended.
With LYTGELDENERDLMHIAHIAELQE [L23Q], the protein stability index amounted to 4.41. As for LYTGELDENERDLMHIAHIAELGE [L23G], the protein stability index worked out at 4.05. For the variant LYTGELDENERDLMHIAHIAELLR [E24R], the protein stability index was found to be 2.11.

Take LYTGELDENERDLMHIAHIAELLS [E24S]: the protein stability index amounted to 2.22. As for LYTGELDENERDLMHIAHIAELLI [E24I], the protein stability index is 2. For LYTGELDENERDLMHIAHIAELLG [E24G], the protein stability index was 2.85. The same measure for LYTGELDENERDLMHIAHIAELLM [E24M]: 2.17; for LYTGELDENERDLMHIAHIAELLF [E24F]: 1.79. In the case of LYTGALDENERDLMHIAHIAELLE [E5A], the protein stability index amounted to 2.12. Regarding LYTGFLDENERDLMHIAHIAELLE [E5F], the protein stability index worked out at 2.71. The value for LYTGGLDENERDLMHIAHIAELLE [E5G] was 2.34; that for LYTGDLDENERDLMHIAHIAELLE [E5D] was 2.63; that for LYTGCLDENERDLMHIAHIAELLE [E5C] was 1.67. The same measure for LYTGVLDENERDLMHIAHIAELLE [E5V]: 1.81; for LYTGELDENERNLMHIAHIAELLE [D12N]: 3.12. The value for LYTGELDENERVLMHIAHIAELLE [D12V] was 2.96; that for LYTGELDENERELMHIAHIAELLE [D12E] was 2.47; that for LYTGELDENERHLMHIAHIAELLE [D12H] was 3.13. Take LYTGELDENERGLMHIAHIAELLE [D12G]: the protein stability index was found to be 2.74. The value for LYTGELDENERWLMHIAHIAELLE [D12W] was 2.49; that for LYTGELDENERFLMHIAHIAELLE [D12F] was 2.78. For the variant LYTGELDENERDLMHIAAIAELLE [H18A], the protein stability index was found to be 1.65. The value for LYTGELDENERDLMHIASIAELLE [H18S] was 3.03.

Consider LYTGELDENERDLMHIAIIAELLE [H18I], for which the protein stability index stood at 2.65. The same measure for LYTGELPENERDLMHIAHIAELLE [D7P]: 2.52; for LYTGELGENERDLMHIAHIAELLE [D7G]: 2.15; for LYTGELVENERDLMHIAHIAELLE [D7V]: 2.46. On to LYTGELQENERDLMHIAHIAELLE [D7Q], for which the protein stability index came out at 1.94. For LYTGELEENERDLMHIAHIAELLE [D7E], the protein stability index was 2.41. As for LYTGELFENERDLMHIAHIAELLE [D7F], the protein stability index was 2.3.

Turning to LYTGELDEAERDLMHIAHIAELLE [N9A], the protein stability index was 2.57.

Regarding LYTGELDEMERDLMHIAHIAELLE [N9M], the protein stability index turned out to be 1.86. Take LYTGELDEQERDLMHIAHIAELLE [N9Q]: the protein stability index amounted to 2.25.

Regarding LYTGELDEVERDLMHIAHIAELLE [N9V], the protein stability index came out at 1.89. For the variant LYTGELDEFERDLMHIAHIAELLE [N9F], the protein stability index was found to be 1.34. The value for LYTGELDWNERDLMHIAHIAELLE [E8W] was 2.88; that for LYTGELDYNERDLMHIAHIAELLE [E8Y] was 2.23. LYTGELDRNERDLMHIAHIAELLE [E8R]: the protein stability index is 2.46. As for LYTGELDANERDLMHIAHIAELLE [E8A], the protein stability index was determined as 2.08. The value for LYTGELDPNERDLMHIAHIAELLE [E8P] was 2.15; that for LYTGELDNNERDLMHIAHIAELLE [E8N] was 2.21; that for LYTGELDHNERDLMHIAHIAELLE [E8H] was 2.39. The value for LYTGELDMNERDLMHIAHIAELLE [E8M] was 1.78. Take LYTGELDCNERDLMHIAHIAELLE [E8C]: the protein stability index came to 2.05. Take LYTGELDTNERDLMHIAHIAELLE [E8T]: the protein stability index was determined as 2.4. As for LYTGELDENERDLMHIAHIAEPLE [L22P], the protein stability index amounted to 4.75. Take LYTGELDENERDLMHIAHIAEFLE [L22F]: the protein stability index is 3.41. The same measure for LYTGELDENERDLMHIAHIAEQLE [L22Q]: 3.74; for LYTGELDENERDLMHIAHIAEYLE [L22Y]: 3.03; for LYTGELDENERDLMHIAHIAEMLE [L22M]: 2.18. Regarding LYTGELDENERDLMHIAHIAETLE [L22T], the protein stability index was 3. The same measure for LYTGELDENERDLMHIAHIAERLE [L22R]: 3.62; for LYTGELDENERDLMHIAHIAEALE [L22A]: 2.96; for LYTGELDENERDLMHIAHIAEDLE [L22D]: 4.26. In the case of LYTGELDENERDLMHIAHIAECLE [L22C], the protein stability index amounted to 2.79. The same measure for LYTGELDENERDLMHIAHIAEHLE [L22H]: 3.76; for LYTGELDENERDLMHIAHIAEKLE [L22K]: 3.67; for LYTGELDENERDLMHIYHIAELLE [A17Y]: 1.93. Regarding LYTGELDENERDLMHIPHIAELLE [A17P], the protein stability index worked out at 3.85. The same measure for LYTGELDENERDLMHIKHIAELLE [A17K]: 2.72. Turning to LYTGELDENERDLMHITHIAELLE [A17T], the protein stability index is 1.82. The value for LYTGELDENERDLMHIVHIAELLE [A17V] was 1.66. LYTGELDENERDLMHIWHIAELLE [A17W]: the protein stability index was found to be 1.87. With LYTGELDENERDLMHIEHIAELLE [A17E], the protein stability index is 2.17. The value for LYTGELDENERDLMHISHIAELLE [A17S] was 3.02; that for LYTGELDENERDLMHIMHIAELLE [A17M] was 1.41; that for LYTGELDENERDLMHIDHIAELLE [A17D] was 3.28. The value for LYTGELDENERDLMHIFHIAELLE [A17F] was 2.38. For LYTGELDENERDLMHIAHPAELLE [I19P], the protein stability index is 4.81. The same measure for LYTGELDENERDLMHIAHYAELLE [I19Y]: 3.56; for LYTGELDENERDLMHIAHAAELLE [I19A]: 3.38; for LYTGELDENERDLMHIAHVAELLE [I19V]: 3.1. The same measure for LYTGELDENERDLMHIAHEAELLE [I19E]: 4.85; for LYTGELDENERDLMHIAHCAELLE [I19C]: 3.3; for LYTGELDENERDLMHIAHDAELLE [I19D]: 4.85. On to LYTGELDENERDLMHIAHFAELLE [I19F], for which the protein stability index was determined as 2.67. On to LYTGELDENERDLMHIAHTAELLE [I19T], for which the protein stability index came out at 3.79. The same measure for LYTGELDENERDLMHIAHKAELLE [I19K]: 4.3; for LYTGELDENERDLMHIAHIHELLE [A20H]: 3.54; for LYTGELDENERDLMHIAHIMELLE [A20M]: 2.01. As to LYTGELDENERDLMHIAHIVELLE [A20V], the protein stability index turned out to be 1.93. On to LYTGELDENERDLMHIAHICELLE [A20C], for which the protein stability index was determined as 1.31. The value for LYTGELDENERDLMHIAHIQELLE [A20Q] was 3.72; that for LYTGELDENERDLMHIAHIFELLE [A20F] was 1.97; that for LYTGELDENERDLMHIAHIIELLE [A20I] was 2.14.

Take LYTGELDENERDLMHIAHIWELLE [A20W]: the protein stability index worked out at 2.37. Take LYTGELDENERDLMHIAHIRELLE [A20R]: the protein stability index stood at 3.22. For the variant LYTGELDENERDLMHIAHIKELLE [A20K], the protein stability index came to 2.99.

On to LYTGELDENERDLNHIAHIAELLE [M14N], for which the protein stability index came out at 3.52.

Take LYTGELDENERDLAHIAHIAELLE [M14A]: the protein stability index was 2.39.

Turning to LYTGELDENERDLYHIAHIAELLE [M14Y], the protein stability index was determined as 2.01. The value for LYTGELDENERDLFHIAHIAELLE [M14F] was 2.54; that for LYTGELDENERDLCHIAHIAELLE [M14C] was 2.45; that for LYTGELDENERDLPHIAHIAELLE [M14P] was 3.48.
